Biological target: T1, HA-tPPARγΔ64D (THP-1) (human, UniProt P37231-2 65-477)
T1 construct: also called truncated PPARγ; source: THP-1, transfected, in cell extract; not shown: HA, C-terminal, kept
T1 sequence (looked up): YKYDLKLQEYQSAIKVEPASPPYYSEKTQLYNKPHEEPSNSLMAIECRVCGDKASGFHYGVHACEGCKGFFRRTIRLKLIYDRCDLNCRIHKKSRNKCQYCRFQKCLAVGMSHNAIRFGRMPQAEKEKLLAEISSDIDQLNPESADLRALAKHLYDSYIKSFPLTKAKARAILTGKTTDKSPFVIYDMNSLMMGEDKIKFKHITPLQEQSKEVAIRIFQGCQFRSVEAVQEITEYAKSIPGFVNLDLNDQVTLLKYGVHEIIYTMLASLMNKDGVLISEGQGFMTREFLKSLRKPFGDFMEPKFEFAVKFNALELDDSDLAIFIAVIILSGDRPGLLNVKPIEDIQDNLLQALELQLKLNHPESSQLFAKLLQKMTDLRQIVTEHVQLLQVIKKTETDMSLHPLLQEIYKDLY
Assay: co-IP; THP-1 cells transfected with HA-PPARγ or HA-tPPARγΔ64D; extracts precipitated with anti-HA and blotted with anti-MCAD, or precipitated with anti-MCAD and blotted with anti-HA; blots scanned
Settings: partners not purified

B1: medium-chain acyl-CoA dehydrogenase (MCAD), endogenous in THP-1 (enzyme, human (endogenous in THP-1), UniProt P11310 26-421, looked up)
chain: KANRQREPGLGFSFEFTEQQKEFQATARKFAREEIIPVAAEYDKTGEYPVPLIRRAWELGLMNTHIPENCGGLGLGTFDACLISEELAYGCTGVQTAIEGNSLGQMPIIIAGNDQQKKKYLGRMTEEPLMCAYCVTEPGAGSDVAGIKTKAEKKGDEYIINGQKMWITNGGKANWYFLLARSDPDPKAPANKAFTGFIVEADTPGIQIGRKELNMGQRCSDTRGIVFEDVKVPKENVLIGDGAGFKVAMGAFDKTRPVVAAGAVGLAQRALDEATKYALERKTFGKLLVEHQAISFMLAEMAMKVELARMSYQRAAWEVDSGRRNTYYASIAKAFAGDIANQLATDAVQILGGNGFNTEYPVEKLMRDAKIYQIYEGTSQIQRLIVAREHIDKYKN
notes: medium-chain acyl-CoA dehydrogenase (MCAD), mitochondrial; detected and precipitated with an anti-MCAD antibody; source: endogenous, THP-1 cell extract
fold MCAD bound against full-length PPARγ: 8 fold
